Columns and labels:
Test in all cases: Luminex, supernatant
[1] = biological target: SARS-CoV-2 Spike Protein (RBD)(R319-F541).mFc (SARS-CoV-2)
[2] = biological target: SARS-CoV-2 Spike Protein (RBD)(R319-F541).hFc (SARS-CoV-2)
[3] = biological target: Human SARS Coronavirus Spike S1 Subunit Protein (His Tag) (Sino 40150-V08B1) (Human SARS Coronavirus, UniProt P59594 14-667)
[4] = biological target: T1, MERS-CoV Spike Protein (ECD, aa 1-1297, His Tag) (Sino 40069-[change]) (MERS-CoV, UniProt K9N5Q8 18-1297)
T1 sequence: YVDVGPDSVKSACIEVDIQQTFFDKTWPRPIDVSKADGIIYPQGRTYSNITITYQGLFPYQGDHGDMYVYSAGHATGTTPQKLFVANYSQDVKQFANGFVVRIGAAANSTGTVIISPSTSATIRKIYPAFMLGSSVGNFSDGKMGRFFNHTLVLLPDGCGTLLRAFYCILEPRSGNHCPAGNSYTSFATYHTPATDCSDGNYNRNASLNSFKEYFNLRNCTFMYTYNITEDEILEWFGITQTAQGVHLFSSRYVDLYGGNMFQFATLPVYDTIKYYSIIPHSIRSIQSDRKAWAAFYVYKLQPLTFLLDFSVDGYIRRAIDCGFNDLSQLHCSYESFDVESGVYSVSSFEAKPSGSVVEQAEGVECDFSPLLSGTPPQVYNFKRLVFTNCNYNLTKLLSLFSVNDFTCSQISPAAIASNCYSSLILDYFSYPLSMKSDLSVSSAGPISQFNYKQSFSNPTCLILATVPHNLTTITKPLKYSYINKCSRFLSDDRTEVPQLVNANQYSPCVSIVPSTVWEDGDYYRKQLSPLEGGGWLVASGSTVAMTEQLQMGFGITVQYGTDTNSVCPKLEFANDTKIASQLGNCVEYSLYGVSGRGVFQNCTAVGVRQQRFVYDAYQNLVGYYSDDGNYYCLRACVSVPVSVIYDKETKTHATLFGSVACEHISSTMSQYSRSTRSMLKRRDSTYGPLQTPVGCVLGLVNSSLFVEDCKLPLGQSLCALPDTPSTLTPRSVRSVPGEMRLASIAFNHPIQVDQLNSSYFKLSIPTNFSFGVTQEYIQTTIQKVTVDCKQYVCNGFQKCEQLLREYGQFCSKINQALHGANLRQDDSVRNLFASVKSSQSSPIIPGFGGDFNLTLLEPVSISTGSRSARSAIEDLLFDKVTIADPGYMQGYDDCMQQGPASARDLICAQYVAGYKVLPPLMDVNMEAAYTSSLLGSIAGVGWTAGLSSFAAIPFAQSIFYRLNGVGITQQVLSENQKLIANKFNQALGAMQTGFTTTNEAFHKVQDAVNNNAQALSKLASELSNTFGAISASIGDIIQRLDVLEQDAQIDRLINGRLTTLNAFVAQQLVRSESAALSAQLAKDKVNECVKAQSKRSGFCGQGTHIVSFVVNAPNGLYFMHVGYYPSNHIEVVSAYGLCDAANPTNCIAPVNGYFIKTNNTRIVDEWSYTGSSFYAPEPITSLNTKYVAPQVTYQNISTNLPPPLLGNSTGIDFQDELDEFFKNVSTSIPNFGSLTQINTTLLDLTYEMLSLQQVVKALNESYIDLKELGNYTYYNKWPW

[5] = biological target: T2, MERS-CoV (NCoV/Novel coronavirus) Spike Protein fragment (RBD, aa 367-606, His Tag) (Sino 40071-V08B1) (MERS-CoV, UniProt K9N5Q8 367-606)
T2 sequence: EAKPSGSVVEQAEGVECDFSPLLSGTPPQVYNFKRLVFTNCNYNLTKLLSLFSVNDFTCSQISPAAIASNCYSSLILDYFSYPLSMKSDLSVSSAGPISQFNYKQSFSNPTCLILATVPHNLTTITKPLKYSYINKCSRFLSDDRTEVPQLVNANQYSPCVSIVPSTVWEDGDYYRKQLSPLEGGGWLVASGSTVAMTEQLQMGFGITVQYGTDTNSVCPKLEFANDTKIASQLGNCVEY

[6] = biological target: T3, MERS-CoV (NCoV/Novel coronavirus) Spike Protein S1 Protein (aa 1-725, His Tag) (Sino 40069-V08B1) (MERS-CoV, UniProt K9N5Q8 18-725)
T3 sequence: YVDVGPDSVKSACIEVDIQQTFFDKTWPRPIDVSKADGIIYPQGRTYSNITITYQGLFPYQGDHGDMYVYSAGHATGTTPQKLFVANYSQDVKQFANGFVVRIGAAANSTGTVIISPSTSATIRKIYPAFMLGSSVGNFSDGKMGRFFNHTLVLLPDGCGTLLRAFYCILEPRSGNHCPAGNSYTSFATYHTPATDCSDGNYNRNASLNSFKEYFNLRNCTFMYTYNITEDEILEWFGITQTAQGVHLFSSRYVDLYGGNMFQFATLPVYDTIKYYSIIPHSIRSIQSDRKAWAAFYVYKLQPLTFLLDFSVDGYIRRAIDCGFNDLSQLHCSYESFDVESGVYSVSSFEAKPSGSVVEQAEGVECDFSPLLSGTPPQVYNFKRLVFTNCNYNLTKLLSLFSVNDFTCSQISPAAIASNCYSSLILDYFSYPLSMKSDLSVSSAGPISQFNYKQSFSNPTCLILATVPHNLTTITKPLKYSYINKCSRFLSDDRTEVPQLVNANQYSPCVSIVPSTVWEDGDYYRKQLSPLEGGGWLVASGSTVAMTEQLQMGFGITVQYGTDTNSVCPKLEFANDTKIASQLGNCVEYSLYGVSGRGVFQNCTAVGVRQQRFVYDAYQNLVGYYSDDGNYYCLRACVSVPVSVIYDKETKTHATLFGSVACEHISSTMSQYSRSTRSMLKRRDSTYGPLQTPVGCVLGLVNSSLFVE

[7] = biological target: T4, MERS-CoV Spike Protein S2 (aa 726-1296, His Tag) (Sino 40070-[change]) (MERS-CoV, UniProt K9N5Q8 726-1296)
T4 sequence: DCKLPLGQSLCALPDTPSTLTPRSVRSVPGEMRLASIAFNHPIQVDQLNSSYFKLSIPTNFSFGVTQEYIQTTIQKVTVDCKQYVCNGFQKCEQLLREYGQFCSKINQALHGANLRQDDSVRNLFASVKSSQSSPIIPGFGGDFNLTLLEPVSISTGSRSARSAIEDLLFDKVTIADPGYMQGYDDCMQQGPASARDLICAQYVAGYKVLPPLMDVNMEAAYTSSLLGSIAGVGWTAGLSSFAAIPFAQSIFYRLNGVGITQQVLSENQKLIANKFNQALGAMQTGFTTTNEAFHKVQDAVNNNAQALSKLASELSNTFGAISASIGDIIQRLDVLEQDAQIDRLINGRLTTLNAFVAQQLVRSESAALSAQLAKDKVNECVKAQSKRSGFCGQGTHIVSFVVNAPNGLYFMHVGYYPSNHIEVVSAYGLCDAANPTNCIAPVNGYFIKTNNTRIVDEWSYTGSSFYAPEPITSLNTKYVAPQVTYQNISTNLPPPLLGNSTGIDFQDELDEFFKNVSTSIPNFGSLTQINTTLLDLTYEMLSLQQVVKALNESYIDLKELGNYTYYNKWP

Binder | MFI [1] [MFI] | MFI [2] [MFI] | MFI [3] [MFI] | MFI [4] [MFI] | MFI [5] [MFI] | MFI [6] [MFI] | MFI [7] [MFI]
mAb10915 (antibody, V domains shown) VH: EVQLVESGGGLVQPGGSLRLSCAASGFTVSSNYMNWVRQAPGKGLEWVSVIYSGGSTFYADSVKGRFTISRHNSKNTLYLQMNSLRPEDTAVYYCARDLGGYFDYWGQGTLVTVSS VL: not shown | 31800 | 32400 | 21 |  |  |  | 
mAb10934 (antibody, V domains shown) VH: not shown VL: DIQMTQSPSSLSASVGDRVTITCQASQDIWNYINWYQQKPGKAPKLLIYDASNLKTGVPSRFSGSGSGTDFTFTISSLQPEDIATYYCQQHDDLPPTFGQGTKVEIKR | 34300 | 35800 |  | 15 | 24 | 20 | 
mAb10935 (antibody, V domains shown) VH: EVQLVESGGGLVQPGGSLRLSCAASGFTVSSNYMSWVRQAPGKGLEWVSLIYSGGSTYYADSVKGRFTISRHNSKNTLYLQMNSLRSEDTAVYYCARVPLGDYYYGMDVWGQGTTVTVSS VL: DIQMTQSPSSLSASVGDRVTITCQASQDINKYLNWYQQKPGKAPKLLIYDASNLETGVPSRFSGSGSGTDFTFTISSLQPEDIATYYCQQSDNLPLTFGGGTKVEIKR | 35900 | 35600 | 21 | 15 | 25 |  | 18
mAb10921 (antibody, V domains shown) VH: EVQLVESGGGLVQPGGSLRLSCAASGITVSSNYMSWVRQAPGKGLEWVSVIYSGGSTFYADSVKGRFTISRHNSKNTLYLQMNSLRAEDTAVYYCARERNFDAFDIWGQGTMVTVSS VL: DIQMTQSPSSVSASVGDRVTITCRASQGISSWLAWYQQKPGKAPKLLIYAASSLQSGVPSRFSGSGSGTDFTLTISSLQPEDFATYYCQQANSFPLFTFGPGTKVDIKR | 19400 | 22300 | 19 | 19 | 23 |  | 19
mAb10982 (antibody, V domains shown) VH: EVQLVESGGGLVQPGGSLRLSCAASGLTVSSNYMSWVRQAPGKGLEWVSVIYSGGTTYYADSVKGRFTISRHNSKNTLSLQMNSLRAEDTAVYYCARGEGANYYGMDVWGQGTTVTVSS VL: QSVLTQPPSVSGAPGQRVTISCTGSSSNIGTGYDVHWYQQLPGTAPKLLIYGNSNRPSGVPDRFSGSKSGTSASLAITGLQAEDEADYYCQSYDSSLSGYVVFGGGTKLTVLG | 23300 | 23000 | 24 |  |  |  | 
mAb10954 (antibody, V domains shown) VH: EVQLVESGGGLVQPGGSLRLSCAASGITVSSNYMSWVRQAPGKGLEWVSLIYSGGSTYYADSVKGRFTISRDNSKNTLYLQMNSLRVEDTAVYYCARDHGMAAAGYNYWGQGTLVTVSS VL: DIQMTQSPSSLSASVGDRVTITCQASQDINKYLNWYQQKPGKAPKLLIYDASNLETGVPSRFSGSGSGTDFTFTINSLQPEDFATYFCQQYDNLPPAFGQGTKVEIKR | 31300 | 31800 |  |  |  |  | 
mAb10955 (antibody, V domains shown) VH: EVQLVESGGGLVQPGGSLRVSCAASGFTVSRNYMSWVRQAPGKGLEWVSVIYSGGSTFYADSVKGRFTISRDNSKNTLYLQMNSLRAEDTAIYYCARYIPRFDPWGQGTLVTVSS VL: DIQMTQSPSSLSASVGDRVTITCQASQDISNYLNWFQQKPGRAPKLLIYDASNLETGVPSRFSGSGSGTDFTFTISSLQPEDIATYYCQQYDNLPITFGQGTRLEIKR | 30800 | 31200 |  |  |  |  | 
mAb10956 (antibody, V domains shown) VH: EVQLVESGGGLVQPGGSLRLSCAASGLTVSSNYMSWVRQAPGKGLEWVSVIYSGGSTFYADSVKGRFTISRDNSKNTLYLQMNSLRAEDTAVYYCARDLIKYGMDVWGQGTTVTVSS VL: not shown | 28300 | 30200 |  |  |  |  | 
mAb10957 (antibody, V domains shown) VH: EVQLVESGGGLVQPGGSLRLSCAASGVTVSSNYMSWVRQAPGKGLEWVSVIYSGGSTFYADSVKGRFTISRDNSKNTLFLQMNSLRIEDTAVYYCARDLGPYGMDVWGQGTTVTVSS VL: DIQLTQSPSFLSASVGDRVTITCRASQGISSYLAWYQQKPGKAPKLLIYAASTLQSGVPSRFSGSGSGTQFILTISSLQPEDFATYYCQQLNSYPGFTFGPGTKVDIKR | 18700 | 22600 |  |  |  |  | 
mAb10933 (antibody, V domains shown) VH: QVQLVESGGGLVKPGGSLRLSCAASGFTFSDYYMSWIRQAPGKGLEWVSYITYSGSTIYYADSVKGRFTISRDNAKSSLYLQMNSLRAEDTAVYYCARDRGTTMVPFDYWGQGTLVTVSS VL: DIQMTQSPSSLSASVGDRVTITCQASQDITNYLNWYQQKPGKAPKLLIYAASNLETGVPSRFSGSGSGTDFTFTISGLQPEDIATYYCQQYDNLPLTFGGGTKVEIKR |  |  | 18 |  |  |  | 
